Biological target: T1, KLHL20 Kelch domain (human, UniProt Q9Y2M5 303-605)
T1 construct: Kelch domain of human KLHL20, Uniprot Q9Y2M5 isoform 1, M303-E605; structure traced from residues 317 to 601; Used for SPR (amine-coupled) and crystallisation; also called untagged KLHL20 Kelch; source: E. coli BL21(DE3)R3-pRARE2, purified (nickel sepharose, size exclusion, anion exchange)
T1 sequence (looked up): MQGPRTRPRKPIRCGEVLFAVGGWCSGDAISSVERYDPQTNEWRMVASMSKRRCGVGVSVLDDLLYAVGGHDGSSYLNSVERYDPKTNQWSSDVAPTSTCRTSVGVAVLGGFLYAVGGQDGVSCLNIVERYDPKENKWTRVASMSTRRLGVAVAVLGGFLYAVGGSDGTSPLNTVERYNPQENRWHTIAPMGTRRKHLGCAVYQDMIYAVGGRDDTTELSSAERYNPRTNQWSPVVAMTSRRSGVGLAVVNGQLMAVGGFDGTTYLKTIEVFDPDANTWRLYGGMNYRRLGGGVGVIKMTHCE
Assay: crystal structure; KLHL20 Kelch domain 12 mg/mL with 3 mM DAPK1 peptide; sitting drop, 2 M sodium chloride, 0.1 M acetate pH 4.5, 20°C; 1.1 Å
Conditions: both partners purified

binding result: binds
B1: 11-residue DAPK1 peptide (crystallization peptide) (peptide)
peptide: LGLPDLVAKYN
notes: also called LT1342; source: synthetic peptide, bought: LifeTein
